Measured values from article PMC8442553 (Science (New York, N.Y.), 2019).

Columns and labels:
Test in all cases: cryo-EM structure
[1] = target: T1, Rsc3 (yeast, UniProt Q06639 1-885)
T1 sequence: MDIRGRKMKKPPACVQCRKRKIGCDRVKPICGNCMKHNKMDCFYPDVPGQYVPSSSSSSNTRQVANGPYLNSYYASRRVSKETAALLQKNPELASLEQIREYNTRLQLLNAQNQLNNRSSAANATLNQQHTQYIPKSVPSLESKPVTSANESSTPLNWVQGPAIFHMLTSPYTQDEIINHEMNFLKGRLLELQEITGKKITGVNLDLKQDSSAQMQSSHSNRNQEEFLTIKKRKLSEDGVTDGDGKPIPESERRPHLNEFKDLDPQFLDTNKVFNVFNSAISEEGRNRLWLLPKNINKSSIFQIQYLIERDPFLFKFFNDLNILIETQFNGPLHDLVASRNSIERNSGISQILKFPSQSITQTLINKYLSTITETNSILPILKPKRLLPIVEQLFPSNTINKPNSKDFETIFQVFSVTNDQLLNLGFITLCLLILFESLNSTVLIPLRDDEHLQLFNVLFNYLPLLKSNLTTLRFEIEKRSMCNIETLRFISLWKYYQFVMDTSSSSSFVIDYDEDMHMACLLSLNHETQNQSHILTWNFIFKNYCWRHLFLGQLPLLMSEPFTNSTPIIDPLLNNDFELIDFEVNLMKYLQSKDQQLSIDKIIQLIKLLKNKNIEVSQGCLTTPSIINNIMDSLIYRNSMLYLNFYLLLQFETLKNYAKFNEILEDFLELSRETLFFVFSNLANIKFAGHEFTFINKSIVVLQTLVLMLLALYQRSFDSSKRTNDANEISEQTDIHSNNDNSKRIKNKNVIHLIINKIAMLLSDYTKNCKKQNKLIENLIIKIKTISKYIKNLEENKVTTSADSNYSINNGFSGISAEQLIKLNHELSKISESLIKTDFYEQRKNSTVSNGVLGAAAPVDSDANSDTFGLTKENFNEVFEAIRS

[2] = target: T2, Rsc30 (yeast, UniProt P38781 1-883)
T2 sequence: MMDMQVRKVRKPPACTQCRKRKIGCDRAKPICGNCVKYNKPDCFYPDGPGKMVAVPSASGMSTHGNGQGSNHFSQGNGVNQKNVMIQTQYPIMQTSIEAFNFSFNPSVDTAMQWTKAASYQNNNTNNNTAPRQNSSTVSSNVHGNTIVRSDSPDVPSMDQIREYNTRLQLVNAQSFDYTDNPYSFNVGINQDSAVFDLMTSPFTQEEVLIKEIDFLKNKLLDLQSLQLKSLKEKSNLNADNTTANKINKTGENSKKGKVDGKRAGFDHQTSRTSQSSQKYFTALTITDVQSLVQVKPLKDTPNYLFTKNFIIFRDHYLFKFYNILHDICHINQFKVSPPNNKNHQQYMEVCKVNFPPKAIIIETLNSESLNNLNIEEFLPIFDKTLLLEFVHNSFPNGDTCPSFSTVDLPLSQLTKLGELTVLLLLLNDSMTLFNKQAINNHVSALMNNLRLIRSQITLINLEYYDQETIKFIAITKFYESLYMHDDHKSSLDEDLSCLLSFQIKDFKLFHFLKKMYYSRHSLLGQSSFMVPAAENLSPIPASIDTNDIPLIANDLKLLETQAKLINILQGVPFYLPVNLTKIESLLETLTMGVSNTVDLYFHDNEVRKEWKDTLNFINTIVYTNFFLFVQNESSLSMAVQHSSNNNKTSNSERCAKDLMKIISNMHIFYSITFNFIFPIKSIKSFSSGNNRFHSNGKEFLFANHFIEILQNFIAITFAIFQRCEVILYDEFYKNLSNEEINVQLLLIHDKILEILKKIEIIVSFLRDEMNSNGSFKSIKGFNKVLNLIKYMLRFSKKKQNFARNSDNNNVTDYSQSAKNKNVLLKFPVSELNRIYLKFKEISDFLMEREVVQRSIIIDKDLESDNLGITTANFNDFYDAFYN

[3] = target: T3, Sth1 (yeast, UniProt P32597 1-1359)
T3 sequence: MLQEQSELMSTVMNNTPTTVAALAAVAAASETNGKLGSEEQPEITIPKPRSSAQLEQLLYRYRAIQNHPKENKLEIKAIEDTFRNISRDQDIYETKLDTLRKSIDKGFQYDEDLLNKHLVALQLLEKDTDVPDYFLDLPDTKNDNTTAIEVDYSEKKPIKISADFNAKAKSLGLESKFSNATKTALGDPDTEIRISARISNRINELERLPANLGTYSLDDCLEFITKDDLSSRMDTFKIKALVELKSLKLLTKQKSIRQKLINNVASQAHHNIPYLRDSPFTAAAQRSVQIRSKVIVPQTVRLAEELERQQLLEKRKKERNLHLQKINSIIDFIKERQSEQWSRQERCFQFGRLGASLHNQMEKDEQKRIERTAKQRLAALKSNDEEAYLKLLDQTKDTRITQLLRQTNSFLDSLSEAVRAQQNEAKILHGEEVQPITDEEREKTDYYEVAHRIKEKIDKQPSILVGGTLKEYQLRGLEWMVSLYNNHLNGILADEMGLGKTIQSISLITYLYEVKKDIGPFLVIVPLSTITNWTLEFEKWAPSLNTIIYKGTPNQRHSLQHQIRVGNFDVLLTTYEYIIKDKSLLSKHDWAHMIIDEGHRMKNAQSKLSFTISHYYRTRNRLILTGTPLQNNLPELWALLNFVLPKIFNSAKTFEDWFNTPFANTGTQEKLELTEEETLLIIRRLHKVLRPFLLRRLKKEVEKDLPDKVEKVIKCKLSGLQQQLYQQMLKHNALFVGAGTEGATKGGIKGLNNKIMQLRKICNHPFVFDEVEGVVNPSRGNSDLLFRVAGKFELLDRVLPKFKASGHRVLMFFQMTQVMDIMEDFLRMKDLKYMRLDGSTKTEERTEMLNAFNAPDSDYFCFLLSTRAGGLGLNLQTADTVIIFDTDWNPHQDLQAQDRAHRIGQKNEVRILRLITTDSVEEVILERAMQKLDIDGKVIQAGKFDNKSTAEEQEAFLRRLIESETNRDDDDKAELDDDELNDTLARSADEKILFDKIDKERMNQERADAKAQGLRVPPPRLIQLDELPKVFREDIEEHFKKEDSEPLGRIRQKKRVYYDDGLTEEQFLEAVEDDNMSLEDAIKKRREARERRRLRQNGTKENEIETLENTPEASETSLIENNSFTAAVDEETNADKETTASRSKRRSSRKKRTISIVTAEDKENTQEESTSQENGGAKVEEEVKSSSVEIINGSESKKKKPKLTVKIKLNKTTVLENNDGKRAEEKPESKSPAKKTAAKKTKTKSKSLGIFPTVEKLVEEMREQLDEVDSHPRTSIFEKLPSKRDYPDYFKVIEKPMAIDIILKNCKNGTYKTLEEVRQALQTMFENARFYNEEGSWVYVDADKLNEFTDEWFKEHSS

Measured: binding result

B1: Rsc9 (natural protein, yeast)
chain: MNSLASNTPLNGTPVSEAPATSSEPVNMFETMVANPIKVSRLQSNGVLTGPAANTKSIHYSLANFNVFQSLPKETARGVDDLTRMEMALLSGIPEEIKWSLKKYLTYSNKAPYMISLRTLPDLLPLFKTFILPLERIVEGLNKSSICDSKAMDSLQMGLNALLILRNLAQDTDSVQILVKDREIKSFILFILKKFQCVATGDNKWQLYEGNATFFNELTHYTLDLMEAISSYIAPAMKDDHYFQTLVSILNYTKDRYMVISILRSLSRLLVRSKANEESAADNLDHKTLSLIVSFLLLECDSELIIASLDFLYQYILPGSQRITELFKSKECSLILEATLPNLLSYNIATPDYHLLQKHKIRLIKRLKPPAPKEPPNLSEDLFQQLFKLNEPLRSTAWLRCCFEPVQEAEFTQISLWRSYESKFGQPVRESGRKLLPAVEFIKNVSNAFNNAAAIVITDPVTGKKRFVIKGIQPRFKALGIADGERESQVPISALKSKFLNDSKEITPARQNSIPEVKFPQELSDVSKVACTFLCLLSNDTDDGAGSAFCQRIRPLVLHKLADIPPLTLALSEYMENTSGL
binds: [1] | [2] | [3]
